Measured values reported in patent US20120252718.

Biological target: cytochrome c (UniProt P62894)
Conditions: Cy3 fluorescence quenching, hyperbolic fit; cytochrome c source for this assay not stated

cytochrome c, sequence (P62894 2-105): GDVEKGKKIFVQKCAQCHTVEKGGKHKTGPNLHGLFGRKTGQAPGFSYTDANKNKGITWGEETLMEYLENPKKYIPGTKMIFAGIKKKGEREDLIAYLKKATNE

tRNACys 5'-Cy3
Kd: 3.5 µM
